Results from paper PMC9883506, “Self-recycling and partially conservative replication of mycobacterial methylmannose polysaccharides” (Communications Biology, 2023).
Residue numbers refer to the chain shown, from its start. Names may count otherwise.

Tests used:
[1] = target: T1, MeT1 (Mycolicibacterium hassiacum, UniProt K5B7F3); experiment: SahH-coupled DTNB assay of SAH release; assay type: biochemical; details: 100 μM MnCl2, BTP pH 7.5
T1 construct: full length, C-terminal His6 tag (pET30a), synthetic gene, E. coli BL21(DE3)
T1 sequence (K5B7F3 whole entry): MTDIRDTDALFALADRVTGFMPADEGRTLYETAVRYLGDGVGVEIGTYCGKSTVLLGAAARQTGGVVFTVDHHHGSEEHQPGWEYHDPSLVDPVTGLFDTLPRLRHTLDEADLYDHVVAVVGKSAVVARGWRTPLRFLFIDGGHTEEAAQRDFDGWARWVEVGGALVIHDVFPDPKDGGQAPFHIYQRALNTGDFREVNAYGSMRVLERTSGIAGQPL

[2] = substrate: CCCO[C@H]1O[C@H](CO)[C@@H](O[C@H]2O[C@H](CO)[C@@H](O[C@H]3O[C@H](CO)[C@@H](O[C@H]4O[C@H](CO)[C@@H](O)[C@H](OC)[C@@H]4O)[C@H](OC)[C@@H]3O)[C@H](OC)[C@@H]2O)[C@H](OC)[C@@H]1O; experiment: coupled PK/LDH NADH assay of GDP release; assay type: biochemical, Mycolicibacterium hassiacum; details: 2.5 mM GDP-Man, 7.5 mM MgCl2, 5 mM NaCl, 0.1% Triton X-100, 50 mM BTP pH 8.5, 37 °C, acceptor
Text: (§1) coupled PK/LDH NADH assay of GDP release on ManT

[3] = substrate: Nc1nc2c(ncn2[C@@H]2O[C@H](COP(=O)(O)OP(=O)(O)O[C@H]3O[C@H](CO)[C@@H](O)[C@H](O)[C@@H]3O)[C@@H](O)[C@H]2O)c(=O)[nH]1; experiment: coupled PK/LDH NADH assay of GDP release; assay type: biochemical, Mycolicibacterium hassiacum; details: 0.1% Triton X-100, 50 mM BTP pH 8.5, 37 °C, donor
Text: as §1

[4] = substrate: CCCO[C@H]1O[C@H](CO)[C@@H](O[C@H]2O[C@H](CO)[C@@H](O[C@H]3O[C@H](CO)[C@@H](O[C@H]4O[C@H](CO)[C@@H](O)[C@H](O)[C@@H]4O)[C@H](O)[C@@H]3O)[C@H](O)[C@@H]2O)[C@H](O)[C@@H]1O; experiment: coupled PK/LDH NADH assay of GDP release; assay type: biochemical, Mycolicibacterium hassiacum; details: 5 mM GDP-Man, 7.5 mM MgCl2, 5 mM NaCl, 0.1% Triton X-100, 50 mM BTP pH 8.5, 37 °C, acceptor
Text: as §1

[5] = 3.5 mM sMetMan4, 7.5 mM MgCl2, 5 mM NaCl
[6] = 1.5 mM sMetMan4, 7.5 mM MgCl2, 5 mM NaCl

`C[S+](CC[C@H](N)C(=O)O)C[C@H]1O[C@@H](n2cnc3c(N)ncnc32)[C@H](O)[C@@H]1O` (stereo partly drawn) [SAM, S-adenosyl-methionine] was tested, and the “SahH-coupled DTNB assay of SAH release” value ([1]; 1.5 mM oligomannoside acceptor, methyl donor) was “quantified from the S-adenosyl-homocysteine (SAH) released from SAM through a continuous”.

For `CO[C@@H]1[C@H](O)[C@@H](O[C@H]2[C@H](OC)[C@H](O)C(O)O[C@@H]2CO)O[C@H](CO)[C@H]1O` (stereo partly drawn) [sMetMan2], the “SahH-coupled DTNB assay of SAH release” value ([1]; 1 mM SAM, 1.5 mM acceptor) was “The activity of MeT1 toward the synthetic substrate sMetMan2 and the two natural substrates”.

B1: ManT (Mycolicibacterium hassiacum DSM 44199; E313A) (protein)
chain: MRIALLSYRSKTHCGGQGVYVRHLSRELAELGHDVEVFSGQPYPEGLDPRVRLTKVPSLDLYREPDPFRIPRPSEIKTSIDLEELLTTWTAGFPEPKTFSLRAARVLAGRRGDFDVVHDNQCLGTGLLQIAKMGFPLVATVHHPITRDREVEVAAARWWRKPLVRRWYGFVEMQKRVARQIPELLTVSSASASDILTDFAVSPEQLHVVPLGVDTKLFQPREGRVRNRIIAIASADVPLKGVSHLLHAVARLRVERDVELQLVTKLEPNGPTEKLIAELGISDIVHTSSGLSDEELAALLASAEVACIPSLYAGFSLPAVEAMASGTPIVASRAGALPEVVGPDGECARLVTPADVDELTAVLGRLLDSPRELRRLGDNGRRRAVEVFSWQSVAAQTVAVYEKAIARVAAC
notes: full length, N-terminal His6 tag (pETM11, tag not removed), synthetic gene, E. coli BL21(DE3); purified with Triton X-100
B1 gave a Km [2] of 1180 ± 300 µM, a kcat/Km [2] of 5 ± 1 M⁻¹ s⁻¹ and a Km [3, 5] of 1230 ± 300 µM. It also gave a kcat/Km [3, 5] of 7 ± 2 M⁻¹ s⁻¹.

B2: ManT (Mycolicibacterium hassiacum DSM 44199) (protein)
chain: B1 chain with A313E
notes: as for B1
In the case of B2, the Km [4] is reported as 2780 ± 450 µM, the kcat/Km [4] is reported as 9 ± 2 M⁻¹ s⁻¹ and the Km [2] is reported as 130 ± 30 µM. It also gave a kcat/Km [2] of 362 ± 68 M⁻¹ s⁻¹, a Km [3, 6] of 280 ± 50 µM and a kcat/Km [3, 6] of 171 ± 33 M⁻¹ s⁻¹.
